Test results published in the supplement of paper PMC12764529.
± gives the half width of the 95% confidence interval.

Key:
[1] = folding stability dG unfold from trypsin proteolysis; higher = more stable
How it was run: (§1)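 K50 was inferred by Bayesian fitting of sequencing counts obtained after protease digestion of designed mini-proteins. Unfolding free energy was derived by comparison with a sequence-predicted unfolded-state K50 and a shared folded-state K50, for each protease or both combined. The mini-proteins were under 80 residues, had no cysteine, were carried in a PA-tagged cDNA display construct, and were kept only if AlphaFold2 dimer inter-PAE exceeded 15.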

[2] = folding stability dG unfold from chymotrypsin proteolysis; higher = more stable
How it was run: as §1

[3] = folding stability dG unfold (combined trypsin and chymotrypsin); higher = more stable
How it was run: as §1

Row | Sequence | folding stability dG unfold [1] | folding stability dG unfold [2] | folding stability dG unfold [3]
1 | SAGGSAGGSMPGETVTLNVKTTVEVTTTLSSPSGSPFPVSVTREVTIPITVSSEELKKGLITLESAGGSAGG [r6_138_JUSTAS] | -0.473 ± 0.2 kcal/mol | 0.291 ± 0.15 kcal/mol | 0.229 ± 0.13 kcal/mol
2 | SAGGSAGGSMPPNFRVMIHDDDGEERTFHMSPEDLKEFADNLPDVKVEPHPPGMMHITVRVPKSAGGSAGGS [r20_231_TrROS] | -0.72 ± 0.19 kcal/mol | 0.454 ± 0.085 kcal/mol | 0.101 ± 0.092 kcal/mol
3 | SAGGSAGGSMPVVEVEITVSYTVPETGEILTKPETITMTPEEAEKIKEELEKKGYKVEVKYNPKSAGGSAGG [r6_97_JUSTAS] | 0.824 ± 0.043 kcal/mol | 1.21 ± 0.067 kcal/mol | 1.15 ± 0.1 kcal/mol
4 | SAGGSAGGSMPVVRIKVRYFNKDGKPVKEKEITITLPAEEITADELRKRLEEAGYEIVEIEVVSAGGSAGGS [r12_611_TrROS_Hall] | 3.42 ± 0.08 kcal/mol | 3.63 ± 0.054 kcal/mol | 3.58 ± 0.061 kcal/mol
5 | SAGGSAGGSMRIEFPELGVEVELEPLPGPHVLLRAVFPDGRVYLFRLDPDGRLVEVEPVEVLASAGGSAGGS [r12_56_TrMRF] | 2.99 ± 0.089 kcal/mol | 3.42 ± 0.035 kcal/mol | 3.23 ± 0.11 kcal/mol
6 | SAGGSAGGSMSLKGVKITEVTNPGGKVTITYTGDGVPQTITIPPAERALIEKLRESGDISFSPSAGGSAGGS [r12_604_JUSTAS] | 0.708 ± 0.043 kcal/mol | 0.579 ± 0.17 kcal/mol | 0.743 ± 0.1 kcal/mol
7 | SAGGSAGGSMSPSSSYTIEKVSEDPSRGVITLKITYPTGESITLKLSPADEEKAEEEAKKLLESAGGSAGGS [r20_167_JUSTAS] | 1.68 ± 0.04 kcal/mol | 1.63 ± 0.1 kcal/mol | 1.63 ± 0.17 kcal/mol
8 | SAGGSAGGSMSVTLVKVERDPANNTITVTIKLPSGETAFTKTVAPGTTVTITFPDGTVLTVTESAGGSAGGS [r12_441_JUSTAS] | 3.12 ± 0.078 kcal/mol | 3.1 ± 0.035 kcal/mol | 3.07 ± 0.061 kcal/mol
9 | SAGGSAGGSMSVTVVGRVPGLGLVEVVIHRPDEPVVVTVPRSEVEALLAAFPYPDAVVTTRDASAGGSAGGS [r12_23_JUSTAS] | -0.043 ± 0.047 kcal/mol | 0.205 ± 0.028 kcal/mol | 0.151 ± 0.056 kcal/mol
10 | SAGGSAGGSMTAEELAKAFPNLPKEEITEIRVEKNEDGTITVTITVKNKNGEKIEIKVEIKLESAGGSAGGS [r12_1050_TrROS_Hall] | 1.34 ± 0.097 kcal/mol | 2.16 ± 0.067 kcal/mol | 2.03 ± 0.1 kcal/mol
11 | SAGGSAGGSMTIKITLPEEGEKVKITIFVNGEEKEIEIEPGEEITIELPENVKNAIIIIEKEPSAGGSAGGS [r12_729_TrROS_Hall] | 2.49 ± 0.1 kcal/mol | 2.48 ± 0.058 kcal/mol | 2.54 ± 0.11 kcal/mol
12 | SAGGSAGGSMTIPILFPIPPGQPPGMEITFRFPGYKIEIEILEVDPENGWIAFMIELTDPGDDSAGGSAGGS [r12_1039_TrROS] | 3.13 ± 0.093 kcal/mol | 4.36 ± 0.095 kcal/mol | 3.92 ± 0.11 kcal/mol
13 | SAGGSAGGSMTSVTTLVETETLTNGNTIVPQLVQITVTLEVPAVPPEEIKPKPAPGDRWTYYSSAGGSAGGS [r12_1031_JUSTAS] | 1.01 ± 0.073 kcal/mol | 1.1 ± 0.16 kcal/mol | 1.12 ± 0.18 kcal/mol
14 | SAGGSAGGSMTTKTFKLPDGRTVTVTTEKLPNGTTKTTVTITVPGTGKTTTVPASEVPADFSGSAGGSAGGS [r12_797_JUSTAS] | 1.24 ± 0.038 kcal/mol | 2.08 ± 0.025 kcal/mol | 1.83 ± 0.068 kcal/mol
15 | SAGGSAGGSMTTSTEVVELSGGSSLTVEREYTVEEVKVDDKWETVTHEVVTTPDSTTVREIKPSAGGSAGGS [r12_128_JUSTAS] | 0.233 ± 0.063 kcal/mol | 0.621 ± 0.068 kcal/mol | 0.526 ± 0.19 kcal/mol
16 | SAGGSAGGSMTVTITFAPDESLGPEKLEELLKKAGPDTTIVLSKYDPATGTTSTATIKVEPGSSAGGSAGGS [r12_913_JUSTAS] | 0.697 ± 0.046 kcal/mol | 1.25 ± 0.013 kcal/mol | 1.07 ± 0.07 kcal/mol
17 | SAGGSAGGSMTWTETVITLKGNGSETTTYKAKVTEDPSSDTVLVTLPDGTPLTIPKSQVTINSSAGGSAGGS [r12_256_JUSTAS] | -0.131 ± 0.18 kcal/mol | 0.668 ± 0.14 kcal/mol | 0.399 ± 0.096 kcal/mol
